What was measured:
[1] = target: T1, full-length HTm4 protein (human, recombinant, His tag cleaved with Factor Xa)
T1 chain: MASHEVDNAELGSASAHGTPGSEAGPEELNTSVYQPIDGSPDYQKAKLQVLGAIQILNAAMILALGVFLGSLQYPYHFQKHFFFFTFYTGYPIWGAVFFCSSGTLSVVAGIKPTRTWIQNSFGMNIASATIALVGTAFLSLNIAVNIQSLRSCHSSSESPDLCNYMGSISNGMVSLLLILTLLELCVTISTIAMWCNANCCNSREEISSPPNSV

[2] = target: cdk2.cyclin A complex (recombinant, Upstate), P24941

B1: KAP (wild-type, full-length KAP protein) (protein)
chain: MKPPSSIQTSEFDSSDEEPIEDEQTPIHISWLSLSRVNCSQFLGLCALPGCKFKDVRRNVQKDTEELKSCGIQDIFVFCTRGELSKYRVPNLLDLYQQCGIITHHHPIADGGTPDIASCCEIMEELTTCLKNYRKTLIHCYGGLGRSCLVAACLLLYLSDTISPEQAIDSLRDLRGSGAIQTIKQYNYLHEFRDKLAAHLSSRDSQSRSVSR
In the case of B1, the “Km of KAP phosphatase activity in the presence of HTm4” value [1] is reported as “A parallel increase in Km (to 8.33 µM) was also observed”, the “Vmax of KAP phosphatase activity in the presence of HTm4” value [1] is reported as “the Vmax of KAP phosphatase activity increased dramatically to 17.5 nM/min” and the “dephosphorylating activity of KAP toward phosphorylated cdk2” value [1] is reported as “HTm4 increases the dephosphorylating activity of KAP toward phosphorylated cdk2 by more than 6-fold”. The “Km of KAP phosphatase activity in the absence of HTm4 (substrate active cdk2.cyclin A)” value [2] was “Vmax and Km for the samples in the presence and absence of HTm4 are 17.5, 1.30 nM/min, and 8.33, 2.68 µM, respectively” and the “Vmax of KAP phosphatase activity in the absence of HTm4 (substrate active cdk2.cyclin A)” value [2] was “Vmax and Km for the samples in the presence and absence of HTm4 are 17.5, 1.30 nM/min, and 8.33, 2.68 µM, respectively”.
